Assays:
[1] = molecular target: human CD3 (CD3 epsilon of the T-cell receptor complex) on Jurkat cells (human) (UniProt P07766); experiment: competition with 125I-UCHT1 tracer on Jurkat cells; competitor at 1 nM
[2] = molecular target: human CD3 (CD3 epsilon of the T-cell receptor complex) on Jurkat cells (human) (UniProt P07766); experiment: competition with 125I-UCHT1 tracer on Jurkat cells; competitor at 100 nM

Sequence of UniProt P07766 (P07766 23-207, one chain of several): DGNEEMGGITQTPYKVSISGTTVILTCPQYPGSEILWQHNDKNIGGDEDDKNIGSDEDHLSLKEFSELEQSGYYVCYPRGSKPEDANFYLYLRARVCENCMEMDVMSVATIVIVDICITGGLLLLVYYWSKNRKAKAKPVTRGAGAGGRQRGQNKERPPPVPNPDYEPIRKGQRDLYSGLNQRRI

Substance scUCHT1 has a % of 125I-UCHT1 bound to cells [1] of 80% and a % of 125I-UCHT1 bound to cells [2] of 0%.
